Experiments:
[1] = target: soluble hMPV F ectodomain (1-489, NL/1/00, G294E) with C-terminal TEV site, Foldon, Xa site and 6xHis-tag, uncleaved (human metapneumovirus, strain NL/1/00 (A1 sublineage)); assay: SEC; HiLoad 16/600 Superdex 200 pg; 50 mM Na2HPO4 pH 8.0, 300 mM NaCl
[2] = target: soluble postfusion hMPV F (NL/1/00, A1 sublineage), furin-cleaved, fusion peptide residues 103-111 d (human metapneumovirus, strain NL/1/00 (A1 sublineage)); assay: as above

Substance	stoichiometry N [1]	stoichiometry N [2]
soluble hMPV F ectodomain (1-489, NL/1/00, G294E) with C-terminal TEV site, Foldon, Xa site and 6xHis-tag, uncleaved (domain or fragment)	3	
soluble postfusion hMPV F (NL/1/00, A1 sublineage), furin-cleaved, fusion peptide residues 103-111 d (domain or fragment)		3

Reference: article PMC5017722
